Publication doi:10.1101/2024.03.22.586355, “Dynamic fibrillar assembly of αB-crystallin induced by perturbation of the conserved NT-IXI motif resolved by cryo-EM” (bioRxiv, 2024)

Tests used:
[1] = target: the molecule itself; test: cryo-EM structure; αB-AXA fibrils elongated at room temperature for about four weeks, dialysed (1 MDa m.w.c.o.), 0.5 mg/mL; helical and local refinement with D2 symmetry, 3.4 Å
[2] = target: the molecule itself; test: SEC + other: negative-stain electron microscopy; Superose-6 24 mL column; peak fractions examined by negative-stain EM with 2D class averaging; 20 mM HEPES pH 7.4, 150 mM NaCl, 1 mM EDTA

B1: human αB-crystallin NT-AXA variant (natural protein, UniProt P02511 1-175, looked up)
chain: MDAAAHHPWIRRPFFPFHSPSRLFDQFFGEHLLESDLFPTSTSLSPFYLRPPSFLRAPSWFDTGLSEMRLEKDRFSVNLDVKHFSPEELKVKVLGDVIEVHGKHEERQDEHGFISREFHRKYRIPADVDPLTITSSLSSDGVLTVNGPRKQVSGPERTIPITREEKPAVTAAPKK
notes: human αB-crystallin (HSPB5, CRYAB), 20.2 kDa subunit; The cryo-EM model covers residues 75-161; the last 14 residues are not modelled; also called αB-AXA; source: E. coli BL21, purified (Sephacryl 300 SEC, MonoQ ion exchange), no purification tags
- binding result [1]: binds

B2: human wildtype αB-crystallin (natural protein, UniProt P02511 1-175, looked up)
chain: MDIAIHHPWIRRPFFPFHSPSRLFDQFFGEHLLESDLFPTSTSLSPFYLRPPSFLRAPSWFDTGLSEMRLEKDRFSVNLDVKHFSPEELKVKVLGDVIEVHGKHEERQDEHGFISREFHRKYRIPADVDPLTITSSLSSDGVLTVNGPRKQVSGPERTIPITREEKPAVTAAPKK
notes: human αB-crystallin (HSPB5, CRYAB), 20.2 kDa subunit; pET plasmid containing the human αB-crystallin gene; Polydisperse cage-like oligomers; also called αB-wt; αB-WT; source: E. coli BL21, purified (Sephacryl 300 SEC, MonoQ ion exchange), no purification tags
- binding result [2]: binds
